Numbering of substitutions follows the chain as printed. In names and notes the source's numbering stands.
Assays:
[1] = target: the molecule itself; experiment: not stated; oligomeric assembly of LH3 N223S, Supplementary Fig. 11B; method not given
[2] = target: the molecule itself; experiment: SEC; analytical size exclusion, Superdex 200 5/150 GL, 25 mM HEPES/NaOH, 200 mM NaCl, pH 8.0
[3] = target: the molecule itself; experiment: SEC-SAXS; 50 uL LH3 at 4 mg/mL on Superdex 200 PC 3.2/300 Increase, 25 mM HEPES/NaOH, 200 mM NaCl, pH 8.0, online SAXS at ESRF BM29

B1: LH3 N223S pathogenic variant (enzyme, human, UniProt O60568 25-738, looked up)
chain: SDRPRGRDPVNPEKLLVITVATAETEGYLRFLRSAEFFNYTVRTLGLGEEWRGGDVARTVGGGQKVRWLKKEMEKYADREDMIIMFVDSYDVILAGSPTELLKKFVQSGSRLLFSAESFCWPEWGLAEQYPEVGTGKRFLNSGGFIGFATTIHQIVRQWKYKDDDDDQLFYTRLYLDPGLREKLSLNLDHKSRIFQNLSGALDEVVLKFDRNRVRIRNVAYDTLPIVVHGNGPTKLQLNYLGNYVPNGWTPEGGCGFCNQDRRTLPGGQPPPRVFLAVFVEQPTPFLPRFLQRLLLLDYPPDRVTLFLHNNEVFHEPHIADSWPQLQDHFSAVKLVGPEEALSPGEARDMAMDLCRQDPECEFYFSLDADAVLTNLQTLRILIEENRKVIAPMLSRHGKLWSNFWGALSPDEYYARSEDYVELVQRKRVGVWNVPYISQAYVIRGDTLRMELPQRDVFSGSDTDPDMAFCKSFRDKGIFLHLSNQHEFGRLLATSRYDTEHLHPDLWQIFDNPVDWKEQYIHENYSRALEGEGIVEQPCPDVYWFPLLSEQMCDELVAEMEHYGQWSGGRHEDSRLAGGYENVPTVDIHMKQVGYEDQWLQLLRTYVGPMTESLFPGYHTKARAVMNFVVRYRPDEQPSLRPHHDSSTFTLNVALNHKGLDYEGGGCRFLRYDCVISSPRKGWALLHPGRLTHYHEGLPTTWGTRYIMVSFVDP
notes: human LH3 (PLOD3), GenBank BC011674.2, devoid of the N-terminal signal peptide, with the pathogenic mutation N223S; The mutation was reported to add an N-linked glycosylation on Asn221; not shown: 6xHis, N-terminal, cleaved
stoichiometry N [1]: 2

B2: LH3 W148N-L150T glycosylated control mutant (enzyme, human, UniProt O60568 25-738, looked up)
chain: B1 chain with W124N, L126T, S199N
modifications: additional glycosylation at the compact N-terminal (crystal contact) interface, introduced by W148N-L150T
notes: human LH3 (PLOD3), GenBank BC011674.2, devoid of the N-terminal signal peptide, with W148N and L150T; not shown: 6xHis, N-terminal, cleaved
stoichiometry N [2]: 2

B3: LH3 L715D mutant (enzyme, human, UniProt O60568 25-738, looked up)
chain: B1 chain with S199N, L691D
notes: human LH3 (PLOD3), GenBank BC011674.2, devoid of the N-terminal signal peptide, with L715D; not shown: 6xHis, N-terminal, cleaved
binding result [2]: binds

B4: human lysyl hydroxylase 3 (LH3/PLOD3), wild type (enzyme, UniProt O60568 25-738, looked up)
chain: B1 chain with S199N
modifications: N-linked glycosylations at Asn63 and Asn548
notes: a vector signal peptide, 6xHis tag and TEV site precede the BamHI site, so a few vector residues may remain after TEV cleavage; also called wild-type LH3; full-length human LH3; not shown: 6xHis, N-terminal, cleaved
stoichiometry N [3]: 2
